Values of other authors in patent US10373702B2, “Water-soluble trans-membrane proteins and methods for the preparation and use thereof” (Massachusetts Institute of Technology, priority 2014, dated 2019).

Molecular target: SDF1a (Homo sapiens, UniProt P48061)
Settings: native membrane-bound receptor with SDF1a

Chain of SDF1a (P48061 22-89 limits assumed, species assumed): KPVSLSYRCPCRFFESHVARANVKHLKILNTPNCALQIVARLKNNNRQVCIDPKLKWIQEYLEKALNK
Chain of SDF1a (P61073 whole entry partner, species assumed): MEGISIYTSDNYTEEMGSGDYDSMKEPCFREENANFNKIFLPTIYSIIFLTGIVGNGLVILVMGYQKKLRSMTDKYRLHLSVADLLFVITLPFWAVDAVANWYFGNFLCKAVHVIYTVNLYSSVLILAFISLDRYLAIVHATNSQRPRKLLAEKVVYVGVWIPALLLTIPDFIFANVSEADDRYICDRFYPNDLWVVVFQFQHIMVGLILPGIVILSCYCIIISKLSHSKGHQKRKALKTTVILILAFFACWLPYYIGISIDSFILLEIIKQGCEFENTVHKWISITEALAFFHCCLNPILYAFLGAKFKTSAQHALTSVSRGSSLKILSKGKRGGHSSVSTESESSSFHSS

Kd: ~100 nM
B1: CXCR4: native CXC chemokine receptor type 4 isoform a, 356 amino acids (protein)
chain: MSIPLPLLQIYTSDNYTEEMGSGDYDSMKEPCFREENANFNKIFLPTIYSIIFLTGIVGNGLVILVMGYQKKLRSMTDKYRLHLSVADLLFVITLPFWAVDAVANWYFGNFLCKAVHVIYTVNLYSSVLILAFISLDRYLAIVHATNSQRPRKLLAEKVVYVGVWIPALLLTIPDFIFANVSEADDRYICDRFYPNDLWVVVFQFQHIMVGLILPGIVILSCYCIIISKLSHSKGHQKRKALKTTVILILAFFACWLPYYIGISIDSFILLEIIKQGCEFENTVHKWISITEALAFFHCCLNPILYAFLGAKFKTSAQHALTSVSRGSSLKILSKGKRGGHSSVSTESESSSFHSS
